Our source for the stoichiometry N (VH molecules per CENP-C-TR), stoichiometry N (VH-EGFP molecules per TR) and stoichiometry N (VH molecules per TR) values is PMC5080440.

In experiment [1] the target is TagRFP-T-CENP-C with the talin rod domain inserted into the middle (internal CENP-C-TR reporter) (Drosophila melanogaster | chicken) (UniProt P54939). The experiment in a line: quantitative two-colour fluorescence imaging of recruitment to kinetochores in live cells; S2 cells co-expressing VH-EGFP and TagRFP-T-CENP-C-TR; metaphase cells, 0.1% DMSO (bioriented kinetochores, under force); VH-EGFP to TagRFP-T ratio divided by the correction ratio from TagRFP-T-CENP-C-EGFP; 25 °C.

For experiment [2] the target is unchanged. The experiment can be described thus: quantitative two-colour fluorescence imaging of recruitment to kinetochores in live cells; S2 cells co-expressing VH-EGFP and TagRFP-T-CENP-C-TR; 25 uM colchicine (unattached kinetochores, low/no force); VH-EGFP to TagRFP-T ratio divided by the correction ratio from TagRFP-T-CENP-C-EGFP; 25 °C.
The target of experiment [3] is TagRFP-T-CENP-C with the talin rod domain at the C terminus (C-terminal CENP-C-TR control reporter) (Drosophila melanogaster | chicken) (UniProt P54939). The description is as above.

B1: vinculin head domain (aa 1-258) fused to EGFP (domain or fragment)
chain: MPVFHTRTIESILEPVAQQISHLVIMHEEGEVDGKAIPDLTAPVSAVQAAVSNLVRVGKETVQTTEDQILKRDMPPAFIKVENACTKLVRAAQMLQADPYSVPARDYLIDGSRGILSGTSDLLLTFDEAEVRKIIRVCKGILEYLTVAEVVETMEDLVTYTKNLGPGMTKMAKMIDERQQELTHQEHRVMLVNSMNTVKELLPVLISAMKIFVTTKNTKSQGIEEALKNRNFTVEKMSAEINEIIRVLQLTSWDEDAW
With B1, in experiment [1], the stoichiometry N (VH molecules per CENP-C-TR) was 1.3. For the same molecule, the stoichiometry N (VH-EGFP molecules per TR) in experiment [2] came to 0.9. Besides, the stoichiometry N (VH molecules per TR) in experiment [3] was 0.75.
